The results in this text go back to patent publication US20260226144A1 (NEPHRIS, published 2026).

The chains are these.
B1: Antibody YU1018-G01 (antibody, human IgG1, V domains shown)
VH: QVQLVQSGAEVKKPGASVKVSCKASGYTFTSYAMHWVRQAPGQRLEWMGWINAGNGNTKYSQKFQGRVTITRDTSASTAYMELSSLRSEDTAVYYCARGRELLTFDYWGQGTLVTVSS
VL: not shown
B2: Antibody YU1019-B06 (antibody, human IgG1, V domains shown)
VH: EVQLLESGGGVVQPGRSLRLSCAASGFTFSSYAMHWVRQAPGKGLEWVAVISYDGSNKYYADSVKGRFTISRDNSKNTLYLQMNSLRAEDTAVYYCASPVLRYFDWLPNYWGQGTLVTVSS
VL: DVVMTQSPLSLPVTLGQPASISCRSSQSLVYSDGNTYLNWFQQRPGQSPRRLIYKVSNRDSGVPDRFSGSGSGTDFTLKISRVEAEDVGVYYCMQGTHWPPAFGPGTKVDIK
B3: Antibody YU1018-E07 (antibody, V domains shown)
VH: B2 VH with L116T
VL: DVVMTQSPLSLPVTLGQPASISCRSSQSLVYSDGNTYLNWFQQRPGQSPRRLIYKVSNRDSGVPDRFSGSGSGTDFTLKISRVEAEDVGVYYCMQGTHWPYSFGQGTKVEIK
B4: Antibody YU1018-E04 (antibody, human IgG1, V domains shown)
VH: QVQLVQSGAEVKKPGESLKISCKGSGYSFTSYWIGWVRQMPGKGLEWMGIIYPGDSDTRYSPSFQGQVTISADKSISTAYLQWSSLKASDTAMYYCARAIVGATSGYWFDPWGQGTLVTVSS
VL: not shown
B5: Antibody YU1019-A12 (antibody, human IgG1, V domains shown)
VH: EVQLLESGPGLVKPSQTLSLTCTVSGGSISSGDYYWSWIRQPPGKGLEWIGYIYYSGSTYYNPSLKSRVTISVDTSKNQFSLKLSSVTAADTAVYYCARGRRLLLFHWGQGTTVTVSS
VL: QSVLTQPPSVSAAPGQKVTISCSGSGSSIGNNYVSWYQQVPGTPPKLLIYDNNKRASGIPDRFSGSKSGTSATLGITGLQTGDEADYYCGTWDNSLSAVVFGGGTKLTVL
B6: Antibody YU1018-D06 (antibody, human IgG1, V domains shown)
VH: QVQLVESGPGLVKPSQTLSLTCTVSGGSISSGGYYWSWIRQHPGKGLEWIGYIYYSGSTYYNPSLKSRVTISVDTSKNQFSLKLSSVTAADTAVYYCARSGAAGIPWFDPWGQGTLVTVSS
VL: B5 VL with G26S, S28N, V40L, P44A, D51E, K54E, A56P, F63L, G75A, N94S
B7: Antibody YU1018-C11 (antibody, V domains shown)
VH: QVQLVQSGGGLVQPGGSLRLSCAASGFTFSSYAMSWVRQAPGKGLEWVSAISGSGGSTYYADSVKGRFTISRDNSKNTLYLQMNSLRAEDTAVYYCARGGFWGSYRYWSAAFDIWGQGTMVTVSS
VL: not shown
B8: Antibody YU1018-D12 (antibody, V domains shown)
VH: EVQLVQSGAEVKKPGASVKVSCKASGYTFTSYGISWVRQAPGQGLEWMGWISAYNGNTNYAQKLQGRVTMTTDTSTSTAYMELRSLRSDDTAVYYCARDVGYSYGIFDYWGQGTLVTVSS
VL: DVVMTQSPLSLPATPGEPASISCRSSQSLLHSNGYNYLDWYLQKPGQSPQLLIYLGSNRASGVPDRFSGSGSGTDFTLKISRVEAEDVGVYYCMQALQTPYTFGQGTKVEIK
B9: Antibody YU1018-D08 (antibody, human IgG1, V domains shown)
VH: QVQLVQSGAEVKKPGSSVKVSCKASGGTFSSYAISWVRQAPGQGLEWMGGIIPIFGTANYAQKFQGRVTITADKSTSTAYMELSSLRSEDTAVYYCARDRYYDSSGYYLMDPWGQGTLVTVSS
VL: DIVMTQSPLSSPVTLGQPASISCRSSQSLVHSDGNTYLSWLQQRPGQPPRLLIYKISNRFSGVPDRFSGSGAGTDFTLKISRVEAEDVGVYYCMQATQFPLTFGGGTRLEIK
B10: Antibody YU1018-E01 (antibody, human IgG1, V domains shown)
VH: QVQLVQSGAEVKKPGASVKVSCKASGYTFTSYGISWVRQAPGRGLEWMGWISAYNGNTNYAQKLQGRVTMTTDTSTSTAYMELRSLRSDDTAVYYCARGPRDGYNDYWGQGTLVTVSS
VL: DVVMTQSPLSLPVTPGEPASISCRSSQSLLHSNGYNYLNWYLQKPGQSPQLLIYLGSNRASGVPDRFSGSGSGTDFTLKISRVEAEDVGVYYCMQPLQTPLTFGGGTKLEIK

Changes are numbered by the printed parent chain.

In one experiment the target is T1, mouse NBL1 (mouse, UniProt Q61477 17-178, limits assumed).
T1 sequence (looked up): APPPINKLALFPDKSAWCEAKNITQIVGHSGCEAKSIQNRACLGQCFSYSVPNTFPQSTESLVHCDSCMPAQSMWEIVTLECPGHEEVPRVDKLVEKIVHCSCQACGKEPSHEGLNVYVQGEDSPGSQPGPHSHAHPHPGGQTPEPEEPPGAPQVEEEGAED
The experiment can be described thus: ELISA, IgG1 format. A general note: In an ELISA, binding on a coated surface is turned into a signal by an enzyme label.
As for B1, the binding result was “binds”.
On the same count and under the same terms, with B2 the entry was “binds”.
Still for that read-out and setting: then B3, with “binds”; and B4, with “binds”; and B5, with “binds”.
The same measure, in the same setting: with B6 the entry was “binds”; with B7, “binds”.
In the case of B8, the binding result is reported as “binds”.
As to B9, the binding result was “binds”.
Still for that read-out and setting: then B10, with “binds”.

The next experiment deals with T2, native murine NBL1 (murine, UniProt Q61477 17-178).
T2 construct: Endogenous protein, not recombinant; also called murine plasma NBL1; murine splenocyte NBL1
T2 sequence (looked up): T1 sequence (looked up)
The experiment can be described thus: sandwich ELISA on native murine plasma NBL1.
Experimental: Binding of the mAbs to native murine plasma NBL1 was performed using a sandwich ELISA, as illustrated in FIG. 11A.
Consider B5, for which the binding result is “binds”.

Another experiment has as its target T3, native human NBL1 (human, UniProt P41271 17-181, limits assumed).
T3 construct: Endogenous protein in permeabilized PBMCs of healthy volunteers; also called native human NBL1 found in human PBMCs
T3 sequence (looked up): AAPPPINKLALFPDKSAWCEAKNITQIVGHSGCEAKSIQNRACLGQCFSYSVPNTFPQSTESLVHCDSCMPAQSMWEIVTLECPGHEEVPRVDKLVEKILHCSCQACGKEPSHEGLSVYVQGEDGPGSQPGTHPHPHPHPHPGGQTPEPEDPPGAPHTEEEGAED
As to the kind of experiment: immunotargeted assay on permeabilized human PBMCs, FACS.
Text: PBMCs were isolated from blood samples of healthy volunteers.
B2: the binding result is reported as “binds”.
The same measure, in the same setting: then B4, with “binds”; and B5, with “binds”.

A further experiment has as its target T2, native murine NBL1. The experiment can be described thus: immunotarget assay on permeabilized murine splenocytes, FACS.
As for B2, the binding result is given as “binds”.
As for B4, the binding result is “binds”.
